Results as given in publication PMC10876215, “Nucleosome conformation dictates the histone code” (eLife, 2024).
Read-outs that look alike come from different tables or passages of the source.

Key:
BPTF PHD (6His-tagged) = molecular target: T1, BPTF PHD (6His-tagged) (Homo sapiens, UniProt Q12830); assay: dCypher binding assay, histone peptides, 6His-PHD Query; conditions: Table (Ext. Figure 2A), 4PL fit, H3 1-20 top constrained (426889)
T1 construct: Q12830 (2865-2924); made in house; host or cells: E. coli BL21 (DE3)
Text: (§1) Human BPTF (Uniprot Q12830) PHD finger-bromodomain (PHD-BD) and PHD finger were cloned into pGEX6p with an N-terminal Glutathione S-Transferase (GST) tag and a PreScission protease cleavage site (Supplementary file 2A and Figure 1—figure supplement 2). BPTF BD with an N-terminal 6xHistidine (6His) tag and Tobacco Etch Virus (TEV) protease cleavage site was from Addgene (plasmid 39111). The Q5 site-directed mutagenesis kit (New England Biolabs [NEB]) was used for domain addition/removal or single amino acid substitutions. All constructs were expressed in E. coli BL21 (DE3) (Thermo Fisher Scientific or NEB). Cells were grown to OD600 ~1.0 and induced with 0.8 mM IPTG at 18 °C for ~16 hr in LB (or M9 minimal media for NMR). M9 media was supplemented with vitamin (Centrum Adult), 1 g/L ^15NH4Cl, and 5 g/L D-glucose. For constructs containing the BPTF PHD finger all growth media and buffers were supplemented with 100 μM ZnCl2. For purification of BPTF recombinants cells were lysed by sonication, and lysates were incubated with either glutathione agarose (Thermo Fisher Scientific) or Ni-NTA resin (Thermo Fisher Scientific) to respectively enrich for GST- and 6His-tagged proteins. Fusion proteins were eluted with reduced L-glutathione or imidazole as appropriate. […] Protein concentrations were determined by UV-Vis spectroscopy. […]

BPTF PHD-BD (GST-tagged) [1] = molecular target: T2, BPTF PHD-BD (GST-tagged) (Homo sapiens, UniProt Q12830); assay: dCypher binding assay, NCPs, GST-PHD-BD Query
T2 construct: Q12830 (2865-3036); made in house; host or cells: E. coli BL21 (DE3)
Text: as §1

BPTF PHD-BD (GST-tagged) [2] = molecular target: T2, BPTF PHD-BD (GST-tagged); assay: dCypher binding assay, histone peptides, GST-PHD-BD Query
Text: as §1

[3] = test system: GST-PHD^W2891A-BD (GST-PHD^mut-BD); format: binding, Human; conditions: for binding: NCPs
Text: Human BPTF (Uniprot Q12830) PHD finger-bromodomain (PHD-BD) and PHD finger were cloned into pGEX6p with an N-terminal Glutathione S-Transferase (GST) tag and a PreScission protease cleavage site (Supplementary file 2A and Figure 1—figure supplement 2). BPTF BD with an N-terminal 6xHistidine (6His) tag and Tobacco Etch Virus (TEV) protease cleavage site was from Addgene (plasmid 39111). The Q5 site-directed mutagenesis kit (New England Biolabs [NEB]) was used for domain addition/removal or single amino acid substitutions. All constructs were expressed in E. coli BL21 (DE3) (Thermo Fisher Scientific or NEB). Cells were grown to OD600 ~1.0 and induced with 0.8 mM IPTG at 18 °C for ~16 hr in LB (or M9 minimal media for NMR). M9 media was supplemented with vitamin (Centrum Adult), 1 g/L ^15NH4Cl, and 5 g/L D-glucose. For constructs containing the BPTF PHD finger all growth media and buffers were supplemented with 100 μM ZnCl2. For purification of BPTF recombinants cells were lysed by sonication, and lysates were incubated with either glutathione agarose (Thermo Fisher Scientific) or Ni-NTA resin (Thermo Fisher Scientific) to respectively enrich for GST- and 6His-tagged proteins. Fusion proteins were eluted with reduced L-glutathione or imidazole as appropriate. For NMR, samples were cleaved from the GST tag using PreScission protease. All BPTF proteins were then further purified using anion exchange (Source 15Q, GE Healthcare Life Sciences) and size exclusion chromatography (SEC; Superdex 75, GE Healthcare Life Sciences). Protein concentrations were determined by UV-Vis spectroscopy.
The dCypher approach (dCypher for brevity) was developed on the chemiluminescent bead-based, no-wash Alpha platform (PerkinElmer) for the high-throughput profiling of CAP binding to PTM-defined histone peptides and semi-synthetic nucleosomes (homotypic NCPs unless stated otherwise) ([Marunde et al., 2022a]; [Morgan et al., 2021]; [Weinberg et al., 2019]; [Dilworth et al., 2022]; [Weinberg et al., 2021]; [Jain et al., 2020]; [Lloyd et al., 2020]). […]

BPTF BD (6His-tagged) [4] = molecular target: T3, BPTF BD (6His-tagged) (Homo sapiens, UniProt Q12830); assay: dCypher binding assay, NCPs, 6His-BD Query
T3 construct: Q12830 (2914-3037); host or cells: E. coli BL21 (DE3)
Text: Human BPTF (Uniprot Q12830) PHD finger-bromodomain (PHD-BD) and PHD finger were cloned into pGEX6p with an N-terminal Glutathione S-Transferase (GST) tag and a PreScission protease cleavage site (Supplementary file 2A and Figure 1—figure supplement 2). BPTF BD with an N-terminal 6xHistidine (6His) tag and Tobacco Etch Virus (TEV) protease cleavage site was from Addgene (plasmid 39111). The Q5 site-directed mutagenesis kit (New England Biolabs [NEB]) was used for domain addition/removal or single amino acid substitutions. All constructs were expressed in E. coli BL21 (DE3) (Thermo Fisher Scientific or NEB). […] Protein concentrations were determined by UV-Vis spectroscopy.
The dCypher approach (dCypher for brevity) was developed on the chemiluminescent bead-based, no-wash Alpha platform (PerkinElmer) for the high-throughput profiling of CAP binding to PTM-defined histone peptides and semi-synthetic nucleosomes (homotypic NCPs unless stated otherwise) ([Marunde et al., 2022a]; [Morgan et al., 2021]; [Weinberg et al., 2019]; [Dilworth et al., 2022]; [Weinberg et al., 2021]; [Jain et al., 2020]; [Lloyd et al., 2020]). […] The plate was incubated at room temperature in subdued lighting for 60 min and the Alpha signal was measured on a PerkinElmer 2104 EnVision (680 nm laser excitation, 570 nm emission filter ± 50 nm bandwidth). […]

BPTF BD (6His-tagged) [5] = molecular target: T3, BPTF BD (6His-tagged); assay: dCypher binding assay, histone peptides, 6His-BD Query; conditions: Table (Ext. Figure 2A), 4PL fit, top constrained (496106)
Text: as §1

[6] = test system: 21 bp double-stranded DNA; assay: NMR titration (1H-15N HSQC) of 15N-H4 tail peptide with dsDNA; format: binding; conditions: 30 μM peptide; DNA ratios up to 1:3; 20 mM MOPS pH 7.2, 150 mM KCl, 25 °C
Protocol: The histone H4 tail (residues 1–25 followed by a C-terminal tyrosine for quantification) was expressed from pGEX6p as a fusion with an N-terminal GST tag followed by a PreScission protease cleavage site (Supplementary file 2A). This was overexpressed in E. coli BL21 (DE3) (NEB) grown in M9 minimal media supplemented with vitamin (Centrum daily multivitamin), 1 g/L ^15NH4Cl, and 5 g/L D-glucose. Cells were grown to OD600 ~1.0 and induced with 0.5 mM IPTG at 37 °C for 4 hr. The ^15N-GST-H4 peptide fusion was purified on glutathione agarose resin (Thermofisher Scientific), cleaved with PreScission protease (16 hr at 4 °C), and products resolved by SEC (Superdex 75 10/300; GE Healthcare Life Sciences). […] Acquisition and deconvolution software used during data collection and analysis were MassLynx and MaxEnt, respectively. ^15N-H4 (1-25) peptide concentration was determined by UV-vis spectroscopy using the non-native C-terminal tyrosine.
Oligonucleotides (5’-[…]-3’ and the complement 5’-[…]-3’) for DNA titration NMR were from Integrated DNA Technologies (IDT). […] Duplex DNA was purified on a source 15Q column (GE Healthcare Life Sciences) and analyzed by 1% agarose gel. DNA was precipitated in ethanol, resuspended in ddH2O, and concentration was determined by UV-vis and the predicted extinction coefficient (ε260=333,804.5 M^–1 cm^–1). […]

DNA binding by CSPs (in words) [6]	Substance	Log EC50rel (BPTF PHD (6His-tagged)) [M]	preference over H3K4me3 or H3tetra^ac (BPTF PHD-BD (GST-tagged) [1]) [fold]	preference over peptides containing each PTM class alone (in words) (BPTF PHD-BD (GST-tagged) [2])	binding ([3]; Figure 2B lower, PHDmut-BD W2891A)	binding to NCPs (in words) ([3]; GST-PHD^mut-BD)	binding ([3]; Table (Figure 2C), PHDmut-BD)	binding (BPTF BD (6His-tagged) [4]; Ext. Figure 2G, 6His BD)	binding (BPTF BD (6His-tagged) [4]; Table (Ext. Figure 2B), 6His-BD)	Log EC50rel (BPTF BD (6His-tagged) [5]) [M]
–	H3K4me3tri^ac: histone H3 peptide H3K4me3K9acK14acK18ac (NMR version aa 1–34)	-7.000	> 20	no preference	no binding	lost binding	no binding	no binding	no binding	-5.811
the H4 tail bound DNA	^15N-H4 (1-25) peptide: histone H4 tail residues 1–25 followed by a C-terminal tyrosine, recombinant	–	–	–	–	–	–	–	–	–
